The target in the experiment is heat shock protein 90 (HSP90) (UniProt P07900). Kind of experiment: co-immunoprecipitation (anti-HA) with immunoblot quantification (ImageJ). To be noted: HEK293T cells; endogenous HSP90; n = 3; parent: est. 1.0; read off a plot. In general terms: Immunoblotting shows a protein as a band on a membrane.

“BRAF^V600E (from UniProt P15056) R509H; 621APE-AAE”: the response (HSP90/HA-BRAF normalized to V600E) came out at 12.

For the origin of these results see article PMC11804575.
